Experimental data as given in patent US6517838B1, “Decorin binding protein essential peptides and methods of use” (The Texas A&M University System, priority 2000, dated 2003).

Tests used:
decorin = target: T1, decorin (Bos taurus, UniProt P21793); assay: Western ligand blot with digoxigenin-labeled decorin; assay type: binding, bovine; conditions: SDS-PAGE reducing, probed with digoxigenin-labeled decorin
T1 construct: Decorin from bovine fetal skin was purified and stored in 4 M guanidine hydrochloride; from tissue; host or cells: decorin from bovine fetal skin; DbpA made in E. coli JM101
T1 sequence (P21793 31-360): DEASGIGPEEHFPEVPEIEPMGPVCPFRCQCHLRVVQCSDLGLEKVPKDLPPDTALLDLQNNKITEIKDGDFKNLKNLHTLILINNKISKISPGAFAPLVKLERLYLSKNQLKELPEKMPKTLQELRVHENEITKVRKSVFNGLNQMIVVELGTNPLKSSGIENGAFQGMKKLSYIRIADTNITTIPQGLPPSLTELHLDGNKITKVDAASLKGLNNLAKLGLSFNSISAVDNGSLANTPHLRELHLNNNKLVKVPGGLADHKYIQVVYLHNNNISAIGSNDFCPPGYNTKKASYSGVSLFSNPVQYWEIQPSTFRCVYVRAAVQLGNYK
Protocol: Decorin from bovine fetal skin was purified and stored in 4 M guanidine hydrochloride at −80° C. and dialyzed extensively against PBS before use. Decorin was labeled with digoxigenin-3-O-methylcarbonyl-ε-aminocaproic acid-N-hydroxy-succinimide ester (digoxigenin) (Boehringer Mannheim, Indianapolis. Ind.) according to the manufacturer's instructions and stored at −20° C. To label decorin with biotin, 7.5 mg of NHS-LC-Biotin (sulfosuccinimidyl-6-(biotinamido) hexanoate) (Pierce, Rockford, Ill.) was dissolved in 100 μl of dimethyl sulfoxide and combined with 0.5 mg of decorin and 0.5 ml of 0.2 M sodium borate (pH 8.0) in a total reaction volume of 1 ml.
Proteins (purified DbpA, DbpA site-directed mutants and OspC) were subjected to SDS-PAGE (reducing conditions) and probed with rabbit anti-DbpA polyclonal sera (R625) or with digoxigenin-labeled decorin.
Further, the side chains of lysine residues were chemically modified and the binding properties of the resulting protein examined. […] Both forms of DbpA migrated as two bands, monomers at 20 and 21 kDa and dimers at 40 and 42 kDa for DbpA and chemically modified DbpA (K-mod), respectively. The decorin binding activity of the DbpA and lysine-modified DbpA was examined in a Western ligand blot assay (FIG. 6B).

[1] = tested on: B. burgdorferi strain B31; assay: Arthritis assessment, histopathology of hind tibiotarsal joints of immunized infected mice; assay type: in vivo
Protocol: (§1) Mice were immunized with recombinant DbpA (SEQ ID 1), P2 (SEQ ID 3), P4 (SEQ ID 5), P5 (SEQ ID 6), P4/P5 (SEQ ID 5/SEQ ID 6), P9 (SEQ ID 10), or the corresponding lysine modified counterparts (P2 Mod, P4 Mod, P5 Mod or P9 Mod) using the immunization schedule established by Hanson (11). Briefly, mice were immunized with 20 μg of protein or peptide in complete Freund's adjuvant (CFA) (Week 1), boosted at week 4 with the same dose in incomplete Freund's adjuvant (IFA) and infected at week 6.
Mice (15 mice/group) were anesthetized with Metofane (methoxyflurane; Pitman-Moore, Mundelein, Ill.) and 10 mice/ group were infected i.d. at the base of the tail with 10^4 Borrelia in 100 μl of media 6 six weeks after the first immunization. The remaining 5 mice/group were tested for a DTH response to recombinant DbpA. Following infection, mice were bled 7 and 14 days postinfection. Serum was collected for antibody analysis and blood cultured for the detection of live spirochetes by inoculating 5 ml of BSK II medium with 50 μl of blood from each infected mouse and cultured for 2 weeks at 34° C. as described above. Also on day 14 postinfection, mice were sacrificed and one hind tibiotarsal joint, heart, bladder, and a 3 mm skin biopsy from the ear were aseptically removed and inoculated into separate tubes containing 6 ml of BSK II medium with antibiotics (50 μg/ml rifampacin and 100 μg/ml phosphomycin (Sigma), and incubated for 2 weeks at 34° C. as described above. Evidence of arthritis was determined by histopathological examination of formalin-fixed hind tibiotarsal joint samples.
Evidence of arthritis was determined by histopathological examination of formalin-fixed hind tibiotarsal joint samples. Tissues for histological examination were embedded in paraffin and stained with hematoxylin and eosin. All sections were examined without knowledge of the vaccination status of the mouse. Arthritis was scored by one of two methods. A positive/negative assessment was used, as well as assignment of an arthritis severity score. Joints were scored according to the levels of infiltrate (neutrophils) as follows: 0, no arthritis, 1, minimal or rare (≦10% tissue involvement); 2, mild (10-20%); […]; and 4, severe (>50%).
A similar trend was also observed for joints examined for arthritis (Table I). DbpA-(SEQ ID 1), P4-(SEQ ID 5), and P5-(SEQ ID 6) immunized mice had the lowest arthritis ratings (0.2, 1.2, and 0.4, respectively) and lowest arthritis incidence (20, 60, and 20%, respectively).

recombinant DbpA = assay: Delayed-type hypersensitivity (DTH) to DbpA, footpad swelling in immunized mice; assay type: in vivo, B. burgdorferi
Protocol: as §1
Native C3H/HeJ mice immunized with DbpA (SEQ ID 1), P2 (SEQ ID 3), P4 (SEQ ID 5), P5 (SEQ ID 6), P4/P5 (SEQ ID 5/SEQ ID 6), P9 (SEQ ID 10), or the corresponding lysine modified counterparts (P2 Mod, P4 Mod, P5 Mod or P9 Mod) were challenged with 2 μg of recombinant DbpA in PBS (50 μl/footpad) 7 weeks after the initial immunization. All footpads were measured before and 24 h after challenge using a spring-loaded micrometer (Mitutoyo, Tokyo, Japan) as described (23). The mice were anesthetized as described above during footpad measurements and injections. Swelling was determined by subtracting the footpad measurements before challenge from those taken 24 h after challenge.
DTH is an in vivo method of testing T cell-dependent immune responses that are manifested by inflammation at the site of antigenic challenge. Mice immunized with DbpA (SEQ ID 1), P2 (SEQ ID 3), P4 (SEQ ID 5), P5 (SEQ ID 6), P4/P5 (SEQ ID 5/SEQ ID 6) combined, P9 (SEQ ID 10), or the corresponding lysine-modified peptides were challenged in the footpad with 2 μg of recombinant DbpA (SEQ ID 1). Footpad measurements were taken before and after challenge as described above. DbpA (SEQ ID 1)-immunized mice developed a significant footpad swelling of 53.3±3.5 (not shown) compared to mice immunized with adjuvant alone or naive mice receiving only the DbpA (SEQ ID 1) challenge. Peptide-immunized mice, with the exception of P2 (SEQ ID 3), also developed a significant DTH response to DbpA (SEQ ID 1) compared to the lysine-modified controls.

[2] = tested on: polyclonal, rabbit anti-DbpA (625); assay: ELISA recognition of DbpA-peptides by polyclonal anti-DbpA serum; assay type: binding; conditions: 2 μg peptide/well, 1:1000 anti-DbpA serum, FIG. 2
Protocol: Immulon-1 microtiter plate wells (Dynatech Labs, Chantilly, Va.) were coated with 2.0 μg of each peptide in 50 μl of PBS overnight at 4° C. The wells were washed and then blocked with 400 μl of Super Block (Pierce, Rockford, Ill.). All incubations were done at 37° C. and all dilutions were made using Super Block. After washing, 100 μl of a 1:1000 dilution of polyclonal, rabbit anti-DbpA (625) (17) was added for 1 hr. After washing, 100 μl of a 1:1000 dilution of AP-conjugated anti-rabbit IgG (Bio-Rad, Hercules, Calif.) was added for 1 hr. The wells were washed and incubated with 100 μl of a 1 mg/ml of Sigma 104 phosphatase substrate (Sigma Chemical Co., St. Louis, Mo.) dissolved in 1 M diethanolamine, 0.5 mM MgCl2, pH 9.8. Plates were washed with 0.05% PBS-Tween 20 between all steps. The absorbance at 410 nm was determined in a Microplate Reader (Molecular Devices, Menlo Park, Calif.).
Immunizations utilizing peptide formulations require that immune responses to the peptide(s) result in recognition of native-protein epitopes. […] Cross-reactivity of peptide epitopes with native protein was examined by ELISA.

[3] = tested on: B. burgdorferi strain B31; assay: Joint cultures for spirochetes after infection of immunized mice; assay type: in vivo; conditions: immunized C3H/HeJ mice, joints 14 days post infection
Protocol: as §1
(§2) Low-passage B. burgdorferi strain B31 (passage 5) was used in this study and cultured in BSK II (Barbour-Stoenner-Kelly) medium at 34° C. (22). Bacterial cultures were incubated in CO2-enriched atmosphere in a GasPak chamber (BBL, Baltimore, Md.) containing BBL GasPak Plus envelopes and a GasPak anaerobic indicator (Beckton dickinson, Cockeysville, Md.) until the cells reached log phase. Bacterial counts were determined using dark field microscopy and a Petroff-Hausser chamber.
(§3) Mice (15 mice/group) were anesthetized with Metofane (methoxyflurane; Pitman-Moore, Mundelein, Ill.) and 10 mice/ group were infected i.d. at the base of the tail with 10^4 Borrelia in 100 μl of media 6 six weeks after the first immunization. The remaining 5 mice/group were tested for a DTH response to recombinant DbpA. Following infection, mice were bled 7 and 14 days postinfection. […]

[4] = tested on: B. burgdorferi strain B31; assay: Blood cultures for spirochetes after infection of immunized mice; assay type: in vivo; conditions: immunized C3H/HeJ mice, blood 7 days post infection with 10^4 Borrelia i.d.
Protocol: as §1, §2, §3

B1: DbpA: recombinant decorin binding protein A of B. burgdorferi strain 297, N-terminal His-tag fusion (protein)
chain: MIKCNNKTFNNLLKLTILVNLLISCGLTGATKIKLESSAKAIVDEIDAIKKKAASMGVNFDAFKDKKTGSGVSENPFILEAKVRATTVAEKFVIAIEEEATKLKETGSSGEFSAMYDLMFEVSKPLQELGIQEMTKTVSMAAEENPPTTAQGVLEIAKKMREKLQRVHKKNQDTLKKKNTEDSTAKS
modifications: N-terminal His-tag; Borrelia Burgdorferi
decorin
  decorin binding in Western ligand blot: bound digoxigenin-labeled decorin
[1]; immunized infected mice
  arthritis incidence and severity (in words): lowest
[1]; immunized mice, day 14 post infection, tibiotarsal joint histology
  % Incidence (arthritis): 20%
[1]; severity score 0-4 by neutrophil infiltrate, day 14 post infection
  Mean Arthritis Rating: 0.2
Recombinant DbpA; C3H/HeJ mice immunized with 20 μg, challenged with 2 μg recombinant DbpA in footpad, 24 h
  DTH response to DbpA (in words): significant inflammation
Recombinant DbpA; C3H/HeJ mice, 24 h after challenge with 2 μg recombinant DbpA, mean±SE
  footpad swelling: 53.3±3.5
[2]
  recognition by anti-DbpA serum (ELISA, O.D. 410 nm): recognized
[3]
  positive joint cultures: 20%
[4]
  positive blood cultures: 50-60%
